# Experimental data reported in US20220356229A1 (published 2022).
# Molecular target: SARS-CoV-2 full length Spike protein, wild type (SARS-CoV-2, UniProt P0DTC2 14-1208)
row,Binder,bead binding signal (fold over isotype)
1,"antibody 363 (antibody, V domains shown) VH: EVQLLESGGGLVQPGGSLRLSCAASGFTFSTYAMSWVRQAPGKGLEWVSAISGSGGSTYYADSVKGRFTISRDNSKNTLYLQMNSLRAEDTAVYYCASGYSPDYWGQGTLVTVSS VL: not shown",1030
2,"antibody 340 (antibody, V domains shown) VH: QVQLVQSGAEVKKPGASVKVSCKASGYTFTSYDINWVRQATGQGLEWMGWMNPNSGNTGYAQKFQGRVTMTRNTSISTAYMELSSLRSEDTAVYYCARGRYCTGGVCWGDWYFDLWGRGTLVTVSS VL: QSVLTQPPSVSGAPGQRVTISCTGSSSNIGAGYDVHWYQQLPGTAPKFLIYGNSNRPSGVPDRFSGSKSGTSASLAITGLQAEDEADYYCQSYDSSLSGPVFGGGTKLTVL",547
3,"antibody 345 (antibody, V domains shown) VH: QVQLQESGPGLVKPSQTLSLTCTVSGGSISSGDYYWSWIRQPPGKGLEWIGYIYYSGSTYYNPSLKSRVTISVDTSKNQFSLKLSSVTAADTAVYYCARVGMVDNWNFEGNWFDPWGQGTLVTVSS VL: QSALTQPRSVSGSPGQSVTISCTGTSSDVGGYNYVSWYQQHPGKAPKLMIYDVSKRPSGVPDRFSGSKSGNTASLTISGLQAEDEADYYCCSYAGSVVFGGGTKLTVL",562
4,"antibody 332 (antibody, V domains shown) VH: QVTLRESGPALVKPTQTLTLTCTFSGFSLSTSGMCVSWIRQPPGKALEWLALIDWDDDKYYSTSLKTRLTISKDTSKNQVVLTMTNMDPVDTATYYCARIHDDILTGYHYVDYWGQGTLVTVSS VL: not shown",1.22
5,"antibody 344 (antibody, V domains shown) VH: QVQLVESGGGVVQPGRSLRLSCAASGFTFSSYAMHWVRQAPGKGLEWMAVISYDGSNKYYADSVKGRFTISRDNSKNTLYLQMNSLRAEDTAVYFCAKGYSGSYYEPFDYWGQGTLVTVSS VL: not shown",404
6,"antibody 333 (antibody, V domains shown) VH: QVHLVESGGGVVLPGRSLRLSCSASQFIFSNYDMHWVRQSPGMGLEWVAGISSDGSDKYYIDSVRGRFTISRDNAKNTLFLQMNSLTTEDTAVYSCAKGGGKFGQYWGRGTLVTVSS VL: AIQMTQSPSSLSASVGDRVTITCRASQVIRNDLAWFQQKPGEAPNLLVYSASNLQSGVPSRFSGSGSGTDFTLTISSLQPEDFATYYCLQDYSYPYTFGQGTKLDMK",1.08
7,"antibody 343 (antibody, V domains shown) VH: QVQLVESGGDVVQPGTSLRLSCAASGFTFNNYGFHWVRQAPGKGLEWVALISSDGASTHYADSVKGRFTISRDSSVNTLYLQMNSLSLEDTAVYYCATGHCGTTCYYFDYWGQGTLVSVSS VL: DIQVTQSPSYLSASVGDRVTITCRASQTISTFLQWYQQKVGKAPKLLIYAASTLQSGVPSRFSGSGSGTDFSLTISSLQPEDFATYYCQQSYSAPLSFGGGTKVEIK",1.2
8,"antibody 348 (antibody, V domains shown) VH: QVQLVQSGSELKKPGASVKVSCKASGYTFTSYAMNWVRQAPGQGLEWMGWINTNTGNPTYAQGFTGRFVFSLDTSVSTAYLQISSLKAEDTAVYYCARDHELPNTSSWFGHFEYWGQGTLVTVSS VL: not shown",869

# Molecular target: SARS-CoV-2 full length Spike protein, wild type, expressed on CHO cells (SARS-CoV-2, UniProt P0DTC2 14-1273)
row,Binder,"median fluorescence intensity, fold over isotype control [fold over isotype]"
1,"anti-SARS-CoV-2 antibody 1036 (antibody, V domains shown) VH: QVQLVQSGAEVKKPGSSVKVSCKASGGTLSSYTISWVRQAPGQGLEWMGRIIPILGIADYAQKFQGRVTITADKSTTTAYMDLSSLGSEDTALYYCASAPKDWSSGFDYYYGMDVWGQGTMVTVSS VL: DIVMTQTPLSLSVTPGQPASISCKSSQSLLNSDGKTYLYWYLQKAGQPPQLLIYEVSNRFSGVPERFSGSGSGTDFTLKISRVEAEDVGVYYCMQSVQLPPYTFGQGTKLEITR",10.2
2,"anti-SARS-CoV-2 antibody 1135 (antibody, V domains shown) VH: EVQLVESGGGLVQPGRSLRLSCAASGLTFEDYAMHWVRQVPGKGLEWVSGISWNSGTIGYADSVKGRFIISRDNAKNSLYLQMRSLRAEDTALYYCAKDVGFGELLYYAFDIWGQGTMVTVSS VL: QSALTQPASVSGSPGQSITISCTGTSSDVGGYNYVSWYQQHPGKAPKLMIYDVSNRPSGVSNRFSGSKSGNTASLTISGLQAEDEADYYCSSYTSSSTVVFGGGTKLTVLG",10.9
3,"anti-SARS-CoV-2 antibody 936 (antibody, V domains shown) VH: EVQLVESGGGLVQPGRSLTLSCAGSGFTFDDYAMHWVRQAPGKGLEWVSGISWNSGSIGYADSVKGRFTISRDNAKNSLYLQMNSLRAEDTALYYCAKDVSYDSSGYYNNAFDIWGQGTMVTVSS VL: DIQLTQSPSFLSASVGDRVTITCRASQGISSYLAWYQQKPGKAPKLLIYAASTLQSGVPSRFSGSGSGTEFTLTISSLQPEDFATYYCQQLYSYPVTFGQGTRLEIKR",33.1
4,"anti-SARS-CoV-2 antibody 1139 (antibody, V domains shown) VH: QVQLVQSGAEVKKPGASVKVSCKASGYTFSSYEINWVRQATGQGLEWMGRMTLNSGNTGYAQNFQGRVTMTRDTSISTAYMELSGLRSEDTAVYYCARMRSGWPTHGRPDDYWGQGTLVTVSS VL: not shown",20.3
5,"anti-SARS-CoV-2 antibody 1149 (antibody, V domains shown) VH: QVQLVQSGAEVKKPGASVKVSCKASGYTFASYDINWVRQATGQGPEWMGWMIPNIGNTGYAQKFQGRVTMTRNTSISTAYMELSSLTSEDTAVYYCARVSRLFNDFGLRHEAPVDFWGQGTRVTVSS VL: QSVLTQPPSVSGAPGQRVTISCTGSSSNIGAGYDVHWYQQLPGTAPKLLIYGYSSRPSGVPDRFSGSKSGTSASLAITGLQAEDEADYYCQSYDSSLSVLFGGGTKLTVLG",19.2
